These results are taken from patent US20190134196A1 (GMAX BIOPHARM, published 2019).

Numbering of substitutions follows the chain as printed.

The target of test [1] is T1, human endothelin A receptor (human, UniProt P25101 21-427).
T1 sequence: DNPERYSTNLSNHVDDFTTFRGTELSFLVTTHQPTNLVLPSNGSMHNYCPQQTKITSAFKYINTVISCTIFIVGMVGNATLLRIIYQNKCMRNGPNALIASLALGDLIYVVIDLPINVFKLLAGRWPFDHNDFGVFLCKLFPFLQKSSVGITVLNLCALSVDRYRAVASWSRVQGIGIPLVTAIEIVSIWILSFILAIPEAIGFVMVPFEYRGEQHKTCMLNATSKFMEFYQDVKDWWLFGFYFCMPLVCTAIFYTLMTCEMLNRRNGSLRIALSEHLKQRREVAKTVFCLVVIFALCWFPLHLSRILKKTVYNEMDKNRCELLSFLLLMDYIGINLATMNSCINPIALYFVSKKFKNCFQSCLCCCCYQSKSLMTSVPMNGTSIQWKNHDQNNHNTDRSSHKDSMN
Kind of test: cell-based or functional assay.

Test [2] concerns the target T1, human endothelin A receptor. The test is described as follows: FACS on CHO-DHFR-ETAR cells, CHO-DHFR- cells as negative control.

B1: ETAR antibody A-9 (antibody, V domains shown)
VH: EVQLQQPGGGLVQPGGSLTLSCATSGFTFSSYGMSWVRQTPAKRLELVATISTNGATANYPDSVKGRFTISRDNAKSTLYLQMRSLKSEDTAMYYCATEKGAMGYWGQGTSVTVSS
VL: DVLMTQTPLSLPVSLGDQASISCRSSQNIVHSTGNTYLEWYLQKPGQSPKLLIYKVSNRFSGVPNRFRGSGSGTDFTLKITRVEAEDLGIYYCFQGSHFPFTFGSGTKLEIKR
Regarding B1, in test [1], the “IC50, calcium flux assay (inhibition of human ETAR)” value was 87.8 nM.

B2: ETAR antibody A-7 (antibody, V domains shown)
VH: EVHLVESGGGLVQPGGSLKLSCAASGFTFSTYGMSWVRQTPDKRLELVATINTNGGTTYYRDSVKGRFTISRDNAKNTLYLQMSSLKSDDTAMYYCARDYGAMDYWGQGTSVTVSS
VL: B1 VL with Q18H, N28Y, N35T, K50Q, N65D, R68T, K79R, T81S, I90V, Y92F
notes: Recombinant antibody; also called L7H7
For the molecule B2, in test [2], the binding result is “binds”.

B3: ETAR antibody A-12 (antibody, V domains shown)
VH: EVKLVESGGRLVQPGNSLRLSCATSGFTFSDYYMSWVRQTPGRALEWLSFIRNRANGYTTEYSASVKGRFTISRDNSQSILYLHMSTLRPEDSATYYCVRDSYHYGYFDVWGAGTTVTVSS
VL: EIQMTQTPSSLSASLGDRVTITCSASQGINNYLNWYQQKPGGKTRLLIYYTSTLQSGVPSRFSGSGSGTHYSLTISNLEPEDIATYYCQQFSKLRTFGGGTRLEIKR
notes: Recombinant antibody; also called L12H12
As to B3, the binding result in test [2] was “binds”.

B4: ETAR antibody A-2 (antibody, V domains shown)
VH: QIQLVQSGAELAKPGASVRMSCETSGYTFTSYWIHWIKERPGQGLEWIGYINPDTDYSEYNQKFKDKARLTADKSSTTAYMELNSLTFDDSAVYYCASAGYYFFDFWGQGTTLTVSS
VL: DIQMTQSPASLSTSVGETVTITCRASENIYSYLAWYQQRQGKSPHLLVNNAKTLAEGVPSRFSGSGSGTHFSLRISGLQPEDFGSYYCQHHYGIPFTFGGGTKLSIKR
notes: Recombinant antibody; also called L2H2
As to B4, in test [2], the binding result is on record as “binds”.
